The record followed here is patent US6569419B2, “Methods for promoting production of myelin by Schwann cells” (ZymoGenetics, Inc., priority 2000, dated 2003).

The subject of test [1] is primary rat Schwann cells. Briefly: Induction of protein zero expression in Schwann cells (Western blot). The test is classed as cell-based. The note with it: N2 medium + 1 μM progesterone. The procedure:
Primary Schwann cells were prepared as described above using 1-day old CD rat neonates. Schwann cells were grown in DMEM, 10% fetal bovine serum (FBS), plus bovine pituitary extract (PEX) at 20 μg/ml and Forskolin at 2μM. The cells were weaned down to a low serum medium (“Li” medium with 1% FBS added to it). Li medium was comprised of DMEM/F12, 10 μg/ml tranferrin, 5 μg/ml insulin, 2 nM progesterone, 2 μM Forskolin, 20 μg/ml PEX, and 20 ng/ml Heregulin-beta-1 (R & D Systems).
The Schwann cells were grown to confluency in the low serum growth medium on poly-L-lysine-coated 10 cm tissue culture dishes. The cell medium was changed to N2 medium+1 μM progesterone with either Forskolin (Calbiochem) (10 μM and 25 μM) or 100 ng/ml of human Zcyto7. Control medium was Schwann cells in N2+1 μM progesterone for the whole time. Cells were harvested and placed in lysis buffer (125 mM Tris HCl, pH 7.0, 15% sucrose, 4% SDS, 10 mM EDTA, plus added Roche Complete-EDTA-free, protease inhibitor cocktail).
Protein concentrations of cell lysates were determined by Pierce BCA protein assay (Pierce Chemical Co., Rockford, Ill.). Forty micrograms of each cell lysate sample was run on a 4-12% Tris-Glycine gel (Novex) at 125 V for 1 hour 30 minutes, and transferred onto a PVDF membrane in a Hoeffer unit a 550 mAmps for 1 hour. Mouse monoclonal antibody to protein zero was used at 1:1000 dilution (1 μg/am final concentration) to probe the blot. A Vectastain biotin/streptavidin-HRP 2nd antibody system was used for amplication. The blot was developed with Pierce SuperSignal West Pico chemiluminescent substrate and scanned on a Boehringer-Mannheim Lumi-Imager.
In general terms: A western blot detects proteins with antibodies after separation by electrophoresis.

The subject of test [2] is mRNA that encodes myelin basic protein and protein zero. Put plainly: Hybridization studies: mRNA levels that encode myelin basic protein and protein zero. The test is classed as cell-based. How it is done: The expression of myelin basic protein and protein zero was also determined by measuring the mRNA levels that encode myelin basic protein and protein zero.

Take `C=C[C@@]1(C)CC(=O)[C@]2(O)[C@@]3(C)[C@@H](O)CCC(C)(C)[C@@H]3[C@H](O)[C@H](OC(C)=O)[C@@]2(C)O1` [Forskolin]: the entries for the “Relative percentage of P zero protein (media control = 100%)” value in test [1] (10 μM) and in test [1] (25 μM) were 199% and 30%, respectively.

B1: human Zcyto7: Human Zcyto7 polypeptide (SEQ ID NO: 2), identified by its homology to Interleukin-17; used at 100 ng/ml (protein)
chain: MDWPHNLLFLLTISIFLGLGQPRSPKSKRKGQGRPGPLAPGPHQVPLDLVSRMKPYARMEEYERNIEEMVAQLRNSSELAQRKCEVNLQLWMSNKRSLSPWGYSINHDPSRIPVDLPEARCLCLGCVNPFTMQEDRSMVSVPVFSQVPVRRRLCPPPPRTGPCRQRAVMETIAVGCTCIF
Consider B1, for which the “Relative percentage of P zero protein (media control = 100%)” value in test [1] (100 ng/ml) turned out to be 173%.

B2: Zcyto7: Zcyto7 polypeptide; species and solution not stated in Example 6 (protein)
chain: B1 chain
Turning to B2, in test [2], the “mRNA that encodes for myelin basic protein” value is reported as “upregulated” and the “mRNA that encodes for protein zero” value is listed as “upregulated”.
